This assay concerns the target reconstituted silk fibroin (RSF) labelled with DyLight 650 (Bombyx mori) (UniProt P05790). In words: MST.

Broadly, the Kd is a measure of binding affinity in units of concentration. Higher therefore signals weaker binding. Substance “wild-type (WT) α-synuclein (from UniProt P37840 1-140) (natural protein)” registered a dissociation constant (Kd) of 0.024 µM.

The record behind these values is publication doi:10.1101/2025.10.25.684501.
